Where two headings read alike, the source gives them in different places.
Key:
[1] = test system: LS174T-PSMA cells; test: in vitro binding and internalization assay; type: cell-based, human; details: 37 °C, 2 h
Description: The binding and internalization characteristics of the ligands were determined using LS174T-PSMA cells. Cells were cultured to confluency in 6-well plates followed by incubation with 50,000 counts per minute of ^111In-labeled ligand (0.1–0.25 pmol/well) in 1-ml RPMI + 0.5% BSA (37 °C, 2 h). Non-specific binding was determined by coincubation with 2(phosphonomethyl)-pentane-1,5-dioic acid (2-PMPA, 21.57 µM). PSMA-specific binding was defined as total binding minus the non-specific binding. To retrieve the membrane-bound fraction, cells were washed twice with PBS and incubated for 10 min at 0 °C with acid buffer (154-mM NaCl, 0.1 M acetic acid, pH 2.6). After incubation, the membrane-bound fraction was collected. Then, cells were washed and lysed with 0.1 M NaOH, and the cell lysate (intracellular activity) was collected. Intracellular and membrane-bound activity fractions were measured in a gamma-counter (2480 WIZARD^2 Automatic Gamma Counter, PerkinElmer).

[2] = test system: LS174T-PSMA cells; test: in vitro targeted PDT assay (CellTiter-Glo); type: cell-based, human; details: 30 nM ligand, irradiated with 100 J/cm^2
Description: LS174T wildtype (LS174T-WT) and LS174T-PSMA cells were cultured to confluency in 48-well plates. Cells were incubated (2 h, 5% CO2, 37 °C) with 30-nM PSMA ligand in binding buffer (RPMI 1640 + 0.5% BSA) in triplicate. After washing with PBS, a 0.5-ml binding buffer was added to each well, and cells were irradiated with a NIR light-emitting diode (690 ± 20 nm). The typical forward voltage was 2.6 V creating a power output of 490 mW using 126 individual LED bulbs to ensure homogenous illumination of the area of interest predefined as 5 × 3 cm. The cells were irradiated at NIR radiant exposures of 100 J/cm^2 ([…]) and subsequently incubated for 1 h at 37 °C. Cells that only received the PSMA ligand, only the NIR light, or neither the ligand nor the light were included as controls. Cytotoxic effects of PDT with PSMA ligands were determined with a CellTiter-Glo™ assay (Promega Benelux) according to the manufacturer’s instructions. The binding buffer was replaced with 100-µl fresh binding buffer and 100-µl CellTiter-Glo® 2.0 Assay. Plates were shaken (2 min) and incubated for 10 min at room temperature. Next, luminescence was measured in a plate reader (Tecan Infinite® 200 PRO) to determine the metabolic activity of the cells.

[3] = ex vivo biodistribution of 111In-labeled ligands; set-up: species or system BALB/c nude mice; details: male, BALB/c nude, mouse, iv, 0.3 nmol, total radioactivity, 2 h p.i.; for tissue uptake at 2 h: 10 MBq/mouse, i.v.
Description: (§1) All animal experiments were approved by the institutional Animal Welfare Committee of the Radboud University Medical Center and were conducted in accordance to the guidelines of the Revised Dutch Act on Animal Experimentation. Animal experiments were performed in 8–10 weeks old male BALB/c nude mice (Janvier). The mice were housed in individually ventilated cages (Blue line IVC, 3–5 mice per cage), under standard non-sterile conditions with cage enrichment present. There was free access to chlorophyll-free animal chow (Sniff Voer) and water. Mice were subcutaneously inoculated with 3.0 × 10^6 LS174T-PSMA cells in the right flank and 1.5 × 10^6 LS174T WT cells in the left flank (diluted in 200-µl RPMI 1640 medium). When xenografts were approximately 0.5 cm^3 (10–14 days after injection), mice were block-randomized into groups based on tumor size. The researchers were not blinded for the experimental groups.
(§2) Mice were intravenously injected with 0.3 nmol PSMA ligand, labeled with 10 MBq ^111In (molar activity 33.3 MBq/nmol) in PBS + 0.5% (w/v) BSA. For the ex vivo biodistribution, five groups (one group for each ligand) of four mice were included. Two hours p.i., all mice were euthanized by CO2/O2-asphyxiation. For two mice of each group (2 mice/ligand), background-subtracted fluorescence images were acquired with the IVIS imaging system (Xenogen VivoVision IVIS Lumina II, PerkinElmer), with a 640-nm excitation filter and a Cy5.5 emission filter and an acquisition time of 10 s. Next, µSPECT/CT imaging was performed in the same two mice per group, with a 1.0-mm diameter pinhole mouse collimator tube (U-SPECT II, MILabs). Mice were scanned for 30 min followed by a CT scan for anatomical reference (spatial resolution 160 μm, 615 μA, 65 kV). MILabs reconstruction software was used to reconstruct the µSPECT/CT scans, via an ordered-subset expectation maximization algorithm, energy windows 154–188 keV and 220–270 keV, 3 iterations, 16 subsets, and voxel size of 0.75 mm. SPECT/CT maximum intensity projections (MIPs) were created using the Inveon Research Workplace software (Siemens Preclinical Solutions, version 4.1). NIR fluorescence images were analyzed using Living Image software (PerkinElmer, version 4.2). After imaging, relevant tissues were dissected, weighed, and measured for radioactivity in a gamma-counter (2480 WIZARD^2 Automatic Gamma Counter, PerkinElmer). In addition, a blocking experiment with PSMA-N064 and PSMA-617 was performed. Full experimental procedures and results can be found in the supplementary data (Page 5, Supplementary Fig. 3).

[4] = test system: LS174T-PSMA and LS174T wildtype xenografts; test: ex vivo biodistribution of 111In-labeled ligands; set-up: species or system BALB/c nude mice; details: 0.3 nmol, 2 h p.i.
Description: as §1, §2

[5] = LS174T wildtype tumor, n=4, read-out: Biodistribution Tumor- LS174T
[6] = LS174T-PSMA tumor, n=4, read-out: Biodistribution Tumor+ LS174T-PSMA
[7] = adrenals, n=4, read-out: Biodistribution Adrenals
[8] = blood, n=4, read-out: Biodistribution Blood
[9] = bone marrow, n=4, read-out: Biodistribution Bone marrow
[10] = bone, n=4, read-out: Biodistribution Bone
[11] = duodenum, n=4, read-out: Biodistribution Duodenum
[12] = heart, n=4, read-out: Biodistribution Heart
[13] = kidney, n=4, read-out: Biodistribution Kidney
[14] = liver, n=4, read-out: Biodistribution Liver
[15] = lung, n=4, read-out: Biodistribution Lung
[16] = muscle, n=4, read-out: Biodistribution Muscle
[17] = pancreas, n=4, read-out: Biodistribution Pancreas
[18] = prostate, n=4, read-out: Biodistribution Prostate
[19] = salivary glands, n=4, read-out: Biodistribution Salivary glands
[20] = spleen, n=4, read-out: Biodistribution Spleen
[21] = stomach, n=4, read-out: Biodistribution Stomach
[22] = tumor (LS174T-PSMA xenograft) / blood, read-out: Tumor/Blood ratio
[23] = tumor (LS174T-PSMA xenograft) / kidney, read-out: Tumor/Kidney ratio
[24] = tumor (LS174T-PSMA xenograft) / liver, read-out: Tumor/Liver ratio
[25] = tumor (LS174T-PSMA xenograft) / spleen, read-out: Tumor/Spleen ratio

## C[Si](C)(CCC[N+](CCCS(=O)(=O)[O-])(CCCS(=O)(=O)O)CCCS(=O)(=O)O)O[Si]1(O[Si](C)(C)CCC[N+](CCCS(=O)(=O)[O-])(CCCS(=O)(=O)O)CCCS(=O)(=O)O)n2c3c4ccccc4c2N=C2N=C(N=c4c5c(OCCCOC(=O)NCCCCCC(=O)NCCCC[C@H](NC(=O)CN6CCN(CC(=O)O)CCN(CC(=O)O)CCN(CC(=O)O)CC6)C(=O)NCCCC[C@H](NC(=O)[C@H](CCC(=O)O)NC(=O)c6ccccc6)C(=O)NC[C@H]6CC[C@H](C(=O)N[C@@H](Cc7ccc8ccccc8c7)C(=O)NCCCC[C@H](NC(=O)N[C@@H](CCC(=O)O)C(=O)O)C(=O)O)CC6)cccc5c(n41)=NC1=NC(=N3)c3ccccc31)c1ccccc12 [PSMA-N03]
[1]
  internalization percentage (percentage of cell-associated ligand that was internalized): 73–90%
[2]
  cell viability: 25% ± 4%
[3]; [5]
  tissue uptake at 2 h: 1.1 ± 0.2 %ID/g
[3]; [6]
  tissue uptake at 2 h: 20 ± 2 %ID/g
[3]; [7]
  tissue uptake at 2 h: 2.1 ± 0.8 %ID/g
[3]; [8]
  tissue uptake at 2 h: 0.7 ± 0.1 %ID/g
[3]; [9]
  tissue uptake at 2 h: 0.2 ± 0.1 %ID/g
[3]; [10]
  tissue uptake at 2 h: 0.5 ± 0.1 %ID/g
[3]; [11]
  tissue uptake at 2 h: 0.4 ± 0.03 %ID/g
[3]; [12]
  tissue uptake at 2 h: 0.4 ± 0.04 %ID/g
[3]; [13]
  tissue uptake at 2 h: 142 ± 11 %ID/g
[3]; [14]
  tissue uptake at 2 h: 1.3 ± 0.1 %ID/g
[3]; [15]
  tissue uptake at 2 h: 1.8 ± 0.4 %ID/g
[3]; [16]
  tissue uptake at 2 h: 0.2 ± 0.1 %ID/g
[3]; [17]
  tissue uptake at 2 h: 0.3 ± 0.02 %ID/g
[3]; [18]
  tissue uptake at 2 h: 0.6 ± 0.2 %ID/g
[3]; [19]
  tissue uptake at 2 h: 0.6 ± 0.1 %ID/g
[3]; [20]
  tissue uptake at 2 h: 1.5 ± 0.4 %ID/g
[3]; [21]
  tissue uptake at 2 h: 0.6 ± 0.1 %ID/g
[3]; [22]
  tissue to tissue ratio at 2 h: 27 ± 2.9
[3]; [23]
  tissue to tissue ratio at 2 h: 0.2 ± 0.02
[3]; [24]
  tissue to tissue ratio at 2 h: 15.1 ± 1.7
[3]; [25]
  tissue to tissue ratio at 2 h: 14.3 ± 4
[4]; 10 MBq/mouse, i.v., n=4
  Biodistribution Kidney: 142.4 ± 10.6 %ID/g
  Biodistribution Tumor+ LS174T-PSMA: 19.8 ± 1.9 %ID/g
[4]; 10 MBq/mouse, i.v., n=4, listed as N03
  Biodistribution Tumor+ LS174T-PSMA: ≥ 20 %ID/g
[4]
  Tumor/Negative tumor ratio: 19.9 ± 6.3
  Tumor/Prostate ratio: 35.1 ± 10.7
  Tumor/Salivary gland ratio: 35.0 ± 5.0

## C[Si](C)(CCC[N+](CCCS(=O)(=O)[O-])(CCCS(=O)(=O)O)CCCS(=O)(=O)O)O[Si]1(O[Si](C)(C)CCC[N+](CCCS(=O)(=O)[O-])(CCCS(=O)(=O)O)CCCS(=O)(=O)O)n2c3c4ccccc4c2N=C2N=C(N=c4c5c(OCCCOC(=O)NCCCCCC(=O)NCCCC[C@H](NC(=O)CCC(C(=O)O)N6CCN(CC(=O)O)CCN(CC(=O)O)CCN(CC(=O)O)CC6)C(=O)N[C@@H](Cc6ccccc6)C(=O)N[C@@H](CCC(=O)O)C(=O)N[C@@H](CCC(=O)O)C(=O)NCCCCCC(=O)NCCCC[C@H](NC(=O)N[C@@H](CCC(=O)O)C(=O)O)C(=O)O)cccc5c(n41)=NC1=NC(=N3)c3ccccc31)c1ccccc12 (some centres unmarked) [PSMA-N064]
[3]; [5]
  tissue uptake at 2 h: 0.7 ± 0.3 %ID/g
[3]; [6]
  tissue uptake at 2 h: 14 ± 2 %ID/g
[3]; [7]
  tissue uptake at 2 h: 1.6 ± 0.4 %ID/g
[3]; [8]
  tissue uptake at 2 h: 0.3 ± 0.1 %ID/g
[3]; [9]
  tissue uptake at 2 h: 0.2 ± 0.1 %ID/g
[3]; [10]
  tissue uptake at 2 h: 0.7 ± 0.1 %ID/g
[3]; [11]
  tissue uptake at 2 h: 0.3 ± 0.1 %ID/g
[3]; [12]
  tissue uptake at 2 h: 0.4 ± 0.1 %ID/g
[3]; [13]
  tissue uptake at 2 h: 74 ± 17 %ID/g
[3]; [14]
  tissue uptake at 2 h: 0.9 ± 0.2 %ID/g
[3]; [15]
  tissue uptake at 2 h: 0.5 ± 0.1 %ID/g
[3]; [16]
  tissue uptake at 2 h: 0.1 ± 0.04 %ID/g
[3]; [17]
  tissue uptake at 2 h: 0.3 ± 0.05 %ID/g
[3]; [18]
  tissue uptake at 2 h: 0.6 ± 0.1 %ID/g
[3]; [19]
  tissue uptake at 2 h: 0.4 ± 0.04 %ID/g
[3]; [20]
  tissue uptake at 2 h: 1.4 ± 0.3 %ID/g
[3]; [21]
  tissue uptake at 2 h: 0.4 ± 0.1 %ID/g
[3]; [22]
  tissue to tissue ratio at 2 h: 54 ± 14.7
[3]; [23]
  tissue to tissue ratio at 2 h: 0.2 ± 0.03
[3]; [24]
  tissue to tissue ratio at 2 h: 15.6 ± 3.6
[3]; [25]
  tissue to tissue ratio at 2 h: 9.6 ± 0.4
[4]
  Tumor/Negative tumor ratio: 23.8 ± 9.7
  Tumor/Prostate ratio: 21.9 ± 1.7
  Tumor/Salivary gland ratio: 33.8 ± 6.6

From PMC9165289, “Theranostic PSMA ligands with optimized backbones for intraoperative multimodal imaging and photodynamic therapy of prostate cancer” (European Journal of Nuclear Medicine and Molecular Imaging, 2022)
